The values that follow come from patent US20100166764A1 (Eli Lilly, published 2010).

In test [1] the target is T1, mature myostatin (human, murine, rat, chicken, turkey, …, UniProt O08689 268-376 (mouse entry)).
T1 sequence: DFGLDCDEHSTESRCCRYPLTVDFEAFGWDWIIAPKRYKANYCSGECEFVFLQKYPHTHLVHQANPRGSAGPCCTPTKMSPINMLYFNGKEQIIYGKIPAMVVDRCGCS
Briefly: cell-based or functional assay.

Test [2] concerns the target T1, mature myostatin. Briefly: ELISA on plate-coated myostatin, periprep Fab in serial dilution, detection with goat anti-human-kappa-AP, O.D. against Fab concentration (ng/ml). As for the experimental part:
ELISA plates are coated with myostatin diluted to 4 ug/ml in carbonate buffer (50 mM NaHCO₃ pH 8.3) and 50 μL added per well. Plates are covered with sealing tape and incubate overnight at 4° C. Thereafter, plates (Greiner U-bottom plates Cat #650061) are washed three times with PBS-T (0.1% Tween-20) using an automatic plate washer. 200 μL of blocking buffer (PBS+1% BSA+0.1% Tween-20) is added to every well and incubated at room temperature for one hour. Plates are washed and 50 μl of sample added per well. Samples are composed of periprep Fabs diluted in PBST/BSA starting at a 1:3 dilution and then serially diluted in half-log steps. Plates are washed and 50 μL of secondary antibody solution (1:2000 goat anti-human-kappa-AP Southern Biotech Cat # 2060-04 in PBST/BSA) is added to every well. Following an additional wash step, 100 μL of AP substrate is added per well and incubates at room temperature for about 10 minutes. The absorbance or OD at 560 nm is read. C12 or 510C2 is included on each ELISA plate as an affinity reference standard. The concentration of Fabs is determined by a quantitative ELISA using an anti-Fd antibody (Sheep anti-Fd Biodesign) to capture protein and goat anti-human-kappa-AP (Southern Biotech) to detect. A purified Fab standard is run on each plate to generate a standard curve for the concentration determinations.
In general terms: In an ELISA, binding on a coated surface is turned into a signal by an enzyme label.

B1: C12-N93H (antibody, human IgG4 S228P, kappa, V domains shown)
VH: QLQLQESGPGLVKPSETLSLTCTVSGFSLRKVGSSVSWIRQPPGKGLEWIGHIYWDDDKRLNPSLRNRVTISVDTSKNQFSLKLSSVTAADTAVYYCARRAITTVIGGGTFDLWGQGTLVTVSS
VL: DIQMTQSPSSLSASVGDRVTITCSASSSISYMHWYQQKPGKAPKLLIYDTSKLARGVPSRFSGSGSGTDFTLTISSLQPEDFATYYCQQWYLHPLTFGGGTKVEIKR
Turning to B1, in the test with mature myostatin [1], the “IC50 in the myostatin/SBE reporter assay (luciferase, HEK293 EBNA cells)” value was about 7.03 nM.

B2: C12 Fab with the Asn residue in CDRL3 replaced with R (Fab, V domains shown)
VH: QLQLQESGPGLVKPSETLSLTCTVSGFSLRKVGSSVSWIRQPPGKGLEWIGHIYWDDDKRLNPSLRNRVTISVDTSKNQFSLKLSSVTAADTAVYYCARRAITTVIGGGTFDLWGQGTLVTVSS
VL: DIQMTQSPSSLSASVGDRVTITCSASSSISYMHWYQQKPGKAPKLLIYDTSKLARGVPSRFSGSGSGTDFTLTISSLQPEDFATYYCQQWYLRPLTFGGGTKVEIKR
notes: Periprep Fab
For the molecule B2, in the test with mature myostatin [2], the binding result is listed as “binds”.
